Article PMC7614924

Molecular target: 0N4R isoform of human tau bearing P301S with a C-terminal Venus tag (Sarkosyl-insoluble filaments from seeded HEK293 cells) (human)

Recombinant N-terminally 6xHis-tagged human P301S 0N4R tau (heparin-assembled fibrils) (natural protein)
percent of HEK293 P301S tau-Venus cells with aggregates (Venus fluorescence) 24 h after 100 nM recombinant tau fibrils with lipofectamine: 20%
